From US20040029228A1

Tests used:
Test in all cases: cell-based or functional assay
[1] = molecular target: zcytoR19 and IL10Rb (CRF2-4) co-expressed on cells (heterodimeric receptor) (human)
[2] = molecular target: T1, human zcytor19 (Zyctor19) cytokine receptor (human)
T1 sequence (Q8IU57 1-520, looked up): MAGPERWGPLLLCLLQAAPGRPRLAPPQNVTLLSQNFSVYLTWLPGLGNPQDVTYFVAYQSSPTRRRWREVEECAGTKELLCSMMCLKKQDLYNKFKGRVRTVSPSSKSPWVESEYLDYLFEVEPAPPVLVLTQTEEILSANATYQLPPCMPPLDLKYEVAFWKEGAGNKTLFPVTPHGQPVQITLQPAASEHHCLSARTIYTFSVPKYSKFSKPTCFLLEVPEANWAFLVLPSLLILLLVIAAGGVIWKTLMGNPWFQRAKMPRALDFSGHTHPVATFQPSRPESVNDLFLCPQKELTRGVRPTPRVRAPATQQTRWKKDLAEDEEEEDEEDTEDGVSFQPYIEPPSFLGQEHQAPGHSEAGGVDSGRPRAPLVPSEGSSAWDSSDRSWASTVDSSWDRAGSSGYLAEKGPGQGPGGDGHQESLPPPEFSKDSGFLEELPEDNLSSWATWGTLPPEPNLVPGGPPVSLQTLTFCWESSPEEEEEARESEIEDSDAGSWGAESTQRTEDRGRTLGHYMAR

[3] = molecular target: human CRF2-4 (IL10Rb) (human)
Chain of human CRF2-4 (IL10Rb) (human) (Q08334 whole entry): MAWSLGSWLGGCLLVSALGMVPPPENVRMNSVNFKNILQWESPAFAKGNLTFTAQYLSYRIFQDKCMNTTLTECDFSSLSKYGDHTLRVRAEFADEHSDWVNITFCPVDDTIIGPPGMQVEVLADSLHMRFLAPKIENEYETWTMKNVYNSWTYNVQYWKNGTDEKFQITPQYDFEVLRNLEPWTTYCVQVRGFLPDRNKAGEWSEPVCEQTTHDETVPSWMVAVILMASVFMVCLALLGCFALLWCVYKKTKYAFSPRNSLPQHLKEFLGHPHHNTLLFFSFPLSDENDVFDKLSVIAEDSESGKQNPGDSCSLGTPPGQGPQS

ISRE-luciferase fold induction, BHK cells transfected with zcytoR19 and IL10Rb (CRF2-4), zcyto22 0.001 ng/ml (fold induction) [1]: 1.3
ISRE-luciferase fold induction, BHK cells transfected with zcytoR19 and IL10Rb (CRF2-4), zcyto22 0.01 ng/ml (fold induction) [1]: 1.7
ISRE-luciferase fold induction, BHK cells transfected with zcytoR19 and IL10Rb (CRF2-4), zcyto22 0.1 ng/ml (fold induction) [1]: 2.4
ISRE-luciferase fold induction, BHK cells transfected with zcytoR19 and IL10Rb (CRF2-4), zcyto22 1 ng/ml (fold induction) [1]: 2.7
ISRE-luciferase fold induction, BHK cells transfected with zcytoR19 and IL10Rb (CRF2-4), zcyto22 10 ng/ml (fold induction) [1]: 2.7
ISRE-luciferase fold induction, BHK cells transfected with zcytoR19 and IL10Rb (CRF2-4), zcyto22 100 ng/ml (fold induction) [1]: 2.2
ISRE-luciferase fold induction, BHK cells transfected with zcytoR19 and IL10Rb (CRF2-4), zcyto22 1000 ng/ml (fold induction) [1]: 2.2
ISRE-luciferase fold induction, 293 cells transfected with ISRE-Luc./Zcytor19, Zcyto22 125 ng/ml (fold induction) [2]: 104
ISRE-luciferase fold induction, BHK cells transfected with zcytoR19 alone, zcyto22 0.001 ng/ml (fold induction) [2]: 1.2
ISRE-luciferase fold induction, BHK cells transfected with zcytoR19 alone, zcyto22 0.01 ng/ml (fold induction) [2]: 1.2
ISRE-luciferase fold induction, BHK cells transfected with zcytoR19 alone, zcyto22 0.1 ng/ml (fold induction) [2]: 1.1
ISRE-luciferase fold induction, BHK cells transfected with zcytoR19 alone, zcyto22 1 ng/ml (fold induction) [2]: 1.5
ISRE-luciferase fold induction, BHK cells transfected with zcytoR19 alone, zcyto22 10 ng/ml (fold induction) [2]: 1.9
ISRE-luciferase fold induction, BHK cells transfected with zcytoR19 alone, zcyto22 100 ng/ml (fold induction) [2]: 2
ISRE-luciferase fold induction, BHK cells transfected with zcytoR19 alone, zcyto22 1000 ng/ml (fold induction) [2]: 1.8
ISRE-luciferase fold induction, wild-type 293 cells, Zcyto22 0.01 ng/ml (fold induction) [3]: 0.9
ISRE-luciferase fold induction, wild-type 293 cells, Zcyto22 0.01 ng/ml + IL10Rb neutralizing Antibody (fold induction) [3]: 0.9
ISRE-luciferase fold induction, wild-type 293 cells, Zcyto22 0.1 ng/ml (fold induction) [3]: 1.2
ISRE-luciferase fold induction, wild-type 293 cells, Zcyto22 0.1 ng/ml + IL10Rb neutralizing Antibody (fold induction) [3]: 0.8
ISRE-luciferase fold induction, wild-type 293 cells, Zcyto22 1 ng/ml (fold induction) [3]: 1.8
ISRE-luciferase fold induction, wild-type 293 cells, Zcyto22 1 ng/ml + IL10Rb neutralizing Antibody (fold induction) [3]: 0.8
ISRE-luciferase fold induction, wild-type 293 cells, Zcyto22 10 ng/ml (fold induction) [3]: 8
ISRE-luciferase fold induction, wild-type 293 cells, Zcyto22 10 ng/ml + IL10Rb neutralizing Antibody (fold induction) [3]: 1
ISRE-luciferase fold induction, wild-type 293 cells, Zcyto22 100 ng/ml (fold induction) [3]: 11
ISRE-luciferase fold induction, wild-type 293 cells, Zcyto22 100 ng/ml + IL10Rb neutralizing Antibody (fold induction) [3]: 1.2
B1: zcyto22 (ligand)
chain: MTGDCMPVLVLMAAVLTVTGAVPVARLRGALPDARGCHIAQFKSLSPQELQAFKRAKDALEESLLLKDCKCRSRLFPRTWDLRQLQVRERPVALEAELALTLKVLEATADTDPALGDVLDQPLHTLHHILSQLRACVSRQGPGTQIQPQPTAGPRTRGRLHHWLHRLQEAPKKESPGCLEASVTFNLFRLLTRDLNCVASGDLCV
